Data: patent US20150299281A1 (ZEALAND PHARMA A S, published 2015)
Square brackets hold non-standard residues; d marks the D form. pGlu = O=C1CC[C@@H](C(=O)O)N1; Aib = CC(C)(N)C(=O)O

T1: human GIP receptor (human, UniProt P48546 22-466)
T1 sequence (looked up): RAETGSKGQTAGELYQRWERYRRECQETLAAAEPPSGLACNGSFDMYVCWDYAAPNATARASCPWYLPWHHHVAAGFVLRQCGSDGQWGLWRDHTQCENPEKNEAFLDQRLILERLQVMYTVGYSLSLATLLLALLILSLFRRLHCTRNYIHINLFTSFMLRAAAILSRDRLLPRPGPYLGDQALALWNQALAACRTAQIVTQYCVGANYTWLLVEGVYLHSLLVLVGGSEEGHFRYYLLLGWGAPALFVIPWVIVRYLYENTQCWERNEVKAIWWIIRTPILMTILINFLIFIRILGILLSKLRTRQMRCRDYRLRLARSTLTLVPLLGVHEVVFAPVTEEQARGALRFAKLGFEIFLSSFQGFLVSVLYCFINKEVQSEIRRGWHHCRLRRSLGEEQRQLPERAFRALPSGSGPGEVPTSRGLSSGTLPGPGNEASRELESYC


What was measured:
human GIP receptor = biological target: T1, human GIP receptor; experiment: cell-based or functional assay
human GLP-1 receptor = human GLP-1 receptor (human, UniProt P43220 24-463); experiment: cell-based or functional assay

Binder | EC50, cAMP induction in HEK293 cells expressing human GIP R (human GIP receptor) [pM] | EC50, cAMP induction in HEK293 cells expressing human GLP-1 R (human GLP-1 receptor) [pM]
H-Y[Aib]EGTFSSDYSIYLDKKAQRAFVNWLLA[Aib]K-NH2 (SMILES CC[C@H](C)[C@H](NC(=O)[C@H](CO)NC(=O)[C@H](Cc1ccc(O)cc1)NC(=O)[C@H](CC(=O)O)NC(=O)[C@H](CO)NC(=O)[C@H](CO)NC(=O)[C@H](Cc1ccccc1)NC(=O)[C@@H](NC(=O)CNC(=O)[C@H](CCC(=O)O)NC(=O)C(C)(C)NC(=O)[C@@H](N)Cc1ccc(O)cc1)[C@@H](C)O)C(=O)N[C@@H](Cc1ccc(O)cc1)C(=O)N[C@@H](CC(C)C)C(=O)N[C@@H](CC(=O)O)C(=O)N[C@@H](CCCCN)C(=O)N[C@@H](CCCCN)C(=O)N[C@@H](C)C(=O)N[C@@H](CCC(N)=O)C(=O)N[C@@H](CCCNC(=N)N)C(=O)N[C@@H](C)C(=O)N[C@@H](Cc1ccccc1)C(=O)N[C@H](C(=O)N[C@@H](CC(N)=O)C(=O)N[C@@H](Cc1c[nH]c2ccccc12)C(=O)N[C@@H](CC(C)C)C(=O)N[C@@H](CC(C)C)C(=O)N[C@@H](C)C(=O)NC(C)(C)C(=O)N[C@@H](CCCCN)C(N)=O)C(C)C) [Compound 8] | 100 | 29
H-Y[Aib]EGTFTSDYSIYSDKKAQRAFVNWLLA[Aib]K-NH2 (SMILES CC[C@H](C)[C@H](NC(=O)[C@H](CO)NC(=O)[C@H](Cc1ccc(O)cc1)NC(=O)[C@H](CC(=O)O)NC(=O)[C@H](CO)NC(=O)[C@@H](NC(=O)[C@H](Cc1ccccc1)NC(=O)[C@@H](NC(=O)CNC(=O)[C@H](CCC(=O)O)NC(=O)C(C)(C)NC(=O)[C@@H](N)Cc1ccc(O)cc1)[C@@H](C)O)[C@@H](C)O)C(=O)N[C@@H](Cc1ccc(O)cc1)C(=O)N[C@@H](CO)C(=O)N[C@@H](CC(=O)O)C(=O)N[C@@H](CCCCN)C(=O)N[C@@H](CCCCN)C(=O)N[C@@H](C)C(=O)N[C@@H](CCC(N)=O)C(=O)N[C@@H](CCCNC(=N)N)C(=O)N[C@@H](C)C(=O)N[C@@H](Cc1ccccc1)C(=O)N[C@H](C(=O)N[C@@H](CC(N)=O)C(=O)N[C@@H](Cc1c[nH]c2ccccc12)C(=O)N[C@@H](CC(C)C)C(=O)N[C@@H](CC(C)C)C(=O)N[C@@H](C)C(=O)NC(C)(C)C(=O)N[C@@H](CCCCN)C(N)=O)C(C)C) [Compound 13] | 140 | 32
H-Y[Aib]EGTFTSDYSIALDKKAQRAFVNWLLA[Aib]K-NH2 (SMILES CC[C@H](C)[C@H](NC(=O)[C@H](CO)NC(=O)[C@H](Cc1ccc(O)cc1)NC(=O)[C@H](CC(=O)O)NC(=O)[C@H](CO)NC(=O)[C@@H](NC(=O)[C@H](Cc1ccccc1)NC(=O)[C@@H](NC(=O)CNC(=O)[C@H](CCC(=O)O)NC(=O)C(C)(C)NC(=O)[C@@H](N)Cc1ccc(O)cc1)[C@@H](C)O)[C@@H](C)O)C(=O)N[C@@H](C)C(=O)N[C@@H](CC(C)C)C(=O)N[C@@H](CC(=O)O)C(=O)N[C@@H](CCCCN)C(=O)N[C@@H](CCCCN)C(=O)N[C@@H](C)C(=O)N[C@@H](CCC(N)=O)C(=O)N[C@@H](CCCNC(=N)N)C(=O)N[C@@H](C)C(=O)N[C@@H](Cc1ccccc1)C(=O)N[C@H](C(=O)N[C@@H](CC(N)=O)C(=O)N[C@@H](Cc1c[nH]c2ccccc12)C(=O)N[C@@H](CC(C)C)C(=O)N[C@@H](CC(C)C)C(=O)N[C@@H](C)C(=O)NC(C)(C)C(=O)N[C@@H](CCCCN)C(N)=O)C(C)C) [Compound 12] | 50 | 10
H-YGEGTFTSDYSIYLDKKAQRAFVNWLLA[Aib]K-NH2 (SMILES CC[C@H](C)[C@H](NC(=O)[C@H](CO)NC(=O)[C@H](Cc1ccc(O)cc1)NC(=O)[C@H](CC(=O)O)NC(=O)[C@H](CO)NC(=O)[C@@H](NC(=O)[C@H](Cc1ccccc1)NC(=O)[C@@H](NC(=O)CNC(=O)[C@H](CCC(=O)O)NC(=O)CNC(=O)[C@@H](N)Cc1ccc(O)cc1)[C@@H](C)O)[C@@H](C)O)C(=O)N[C@@H](Cc1ccc(O)cc1)C(=O)N[C@@H](CC(C)C)C(=O)N[C@@H](CC(=O)O)C(=O)N[C@@H](CCCCN)C(=O)N[C@@H](CCCCN)C(=O)N[C@@H](C)C(=O)N[C@@H](CCC(N)=O)C(=O)N[C@@H](CCCNC(=N)N)C(=O)N[C@@H](C)C(=O)N[C@@H](Cc1ccccc1)C(=O)N[C@H](C(=O)N[C@@H](CC(N)=O)C(=O)N[C@@H](Cc1c[nH]c2ccccc12)C(=O)N[C@@H](CC(C)C)C(=O)N[C@@H](CC(C)C)C(=O)N[C@@H](C)C(=O)NC(C)(C)C(=O)N[C@@H](CCCCN)C(N)=O)C(C)C) [Compound 7] | 210 | 24
[pGlu]YAEGTFTSDYSIYLDKKAQRAFVNWLLA[Aib]K-NH2 (SMILES CC[C@H](C)[C@H](NC(=O)[C@H](CO)NC(=O)[C@H](Cc1ccc(O)cc1)NC(=O)[C@H](CC(=O)O)NC(=O)[C@H](CO)NC(=O)[C@@H](NC(=O)[C@H](Cc1ccccc1)NC(=O)[C@@H](NC(=O)CNC(=O)[C@H](CCC(=O)O)NC(=O)[C@H](C)NC(=O)[C@H](Cc1ccc(O)cc1)NC(=O)[C@@H]1CCC(=O)N1)[C@@H](C)O)[C@@H](C)O)C(=O)N[C@@H](Cc1ccc(O)cc1)C(=O)N[C@@H](CC(C)C)C(=O)N[C@@H](CC(=O)O)C(=O)N[C@@H](CCCCN)C(=O)N[C@@H](CCCCN)C(=O)N[C@@H](C)C(=O)N[C@@H](CCC(N)=O)C(=O)N[C@@H](CCCNC(=N)N)C(=O)N[C@@H](C)C(=O)N[C@@H](Cc1ccccc1)C(=O)N[C@H](C(=O)N[C@@H](CC(N)=O)C(=O)N[C@@H](Cc1c[nH]c2ccccc12)C(=O)N[C@@H](CC(C)C)C(=O)N[C@@H](CC(C)C)C(=O)N[C@@H](C)C(=O)NC(C)(C)C(=O)N[C@@H](CCCCN)C(N)=O)C(C)C) [Compound 6] | 270 | 970
H-Y[Aib]EGTFTSDYLIYLDKKAQRAFVNWLLA[Aib]K-NH2 (SMILES CC[C@H](C)[C@H](NC(=O)[C@H](CC(C)C)NC(=O)[C@H](Cc1ccc(O)cc1)NC(=O)[C@H](CC(=O)O)NC(=O)[C@H](CO)NC(=O)[C@@H](NC(=O)[C@H](Cc1ccccc1)NC(=O)[C@@H](NC(=O)CNC(=O)[C@H](CCC(=O)O)NC(=O)C(C)(C)NC(=O)[C@@H](N)Cc1ccc(O)cc1)[C@@H](C)O)[C@@H](C)O)C(=O)N[C@@H](Cc1ccc(O)cc1)C(=O)N[C@@H](CC(C)C)C(=O)N[C@@H](CC(=O)O)C(=O)N[C@@H](CCCCN)C(=O)N[C@@H](CCCCN)C(=O)N[C@@H](C)C(=O)N[C@@H](CCC(N)=O)C(=O)N[C@@H](CCCNC(=N)N)C(=O)N[C@@H](C)C(=O)N[C@@H](Cc1ccccc1)C(=O)N[C@H](C(=O)N[C@@H](CC(N)=O)C(=O)N[C@@H](Cc1c[nH]c2ccccc12)C(=O)N[C@@H](CC(C)C)C(=O)N[C@@H](CC(C)C)C(=O)N[C@@H](C)C(=O)NC(C)(C)C(=O)N[C@@H](CCCCN)C(N)=O)C(C)C) [Compound 11] | 760 | 470

The next lines start with the values.

EC50, cAMP induction in HEK293 cells expressing human GIP R (human GIP receptor) [pM] | EC50, cAMP induction in HEK293 cells expressing human GLP-1 R (human GLP-1 receptor) [pM] | Binder
36 | 8.7 | H-Y[Aib]EGTFTSDYSIYLEKKAQRAFVNWLLA[Aib]K-NH2 (SMILES CC[C@H](C)[C@H](NC(=O)[C@H](CO)NC(=O)[C@H](Cc1ccc(O)cc1)NC(=O)[C@H](CC(=O)O)NC(=O)[C@H](CO)NC(=O)[C@@H](NC(=O)[C@H](Cc1ccccc1)NC(=O)[C@@H](NC(=O)CNC(=O)[C@H](CCC(=O)O)NC(=O)C(C)(C)NC(=O)[C@@H](N)Cc1ccc(O)cc1)[C@@H](C)O)[C@@H](C)O)C(=O)N[C@@H](Cc1ccc(O)cc1)C(=O)N[C@@H](CC(C)C)C(=O)N[C@@H](CCC(=O)O)C(=O)N[C@@H](CCCCN)C(=O)N[C@@H](CCCCN)C(=O)N[C@@H](C)C(=O)N[C@@H](CCC(N)=O)C(=O)N[C@@H](CCCNC(=N)N)C(=O)N[C@@H](C)C(=O)N[C@@H](Cc1ccccc1)C(=O)N[C@H](C(=O)N[C@@H](CC(N)=O)C(=O)N[C@@H](Cc1c[nH]c2ccccc12)C(=O)N[C@@H](CC(C)C)C(=O)N[C@@H](CC(C)C)C(=O)N[C@@H](C)C(=O)NC(C)(C)C(=O)N[C@@H](CCCCN)C(N)=O)C(C)C) [Compound 14]
60 | 10 | H-Y[Aib]EGTFTSDYSIALEKKAQRAFVNWLLA[Aib]K-NH2 (SMILES CC[C@H](C)[C@H](NC(=O)[C@H](CO)NC(=O)[C@H](Cc1ccc(O)cc1)NC(=O)[C@H](CC(=O)O)NC(=O)[C@H](CO)NC(=O)[C@@H](NC(=O)[C@H](Cc1ccccc1)NC(=O)[C@@H](NC(=O)CNC(=O)[C@H](CCC(=O)O)NC(=O)C(C)(C)NC(=O)[C@@H](N)Cc1ccc(O)cc1)[C@@H](C)O)[C@@H](C)O)C(=O)N[C@@H](C)C(=O)N[C@@H](CC(C)C)C(=O)N[C@@H](CCC(=O)O)C(=O)N[C@@H](CCCCN)C(=O)N[C@@H](CCCCN)C(=O)N[C@@H](C)C(=O)N[C@@H](CCC(N)=O)C(=O)N[C@@H](CCCNC(=N)N)C(=O)N[C@@H](C)C(=O)N[C@@H](Cc1ccccc1)C(=O)N[C@H](C(=O)N[C@@H](CC(N)=O)C(=O)N[C@@H](Cc1c[nH]c2ccccc12)C(=O)N[C@@H](CC(C)C)C(=O)N[C@@H](CC(C)C)C(=O)N[C@@H](C)C(=O)NC(C)(C)C(=O)N[C@@H](CCCCN)C(N)=O)C(C)C) [Compound 15]
